Laboratory results taken from US8540999B2, “Allergenic proteins and peptides from Japanese cedar pollen” (Merck Patent GmbH, priority 1991, dated 2013).

How the values were obtained:
Cry j I reactive T cells = assay: T cell proliferation assay, Cry j I primed T cell lines (Example 6); format: cell-based, human
Description: Viable cells were purified by LSM centrifugation and cultured in complete medium supplemented with 5 units recombinant human IL-2/ml and 5 units recombinant human IL-4/ml for up to three weeks until the cells no longer responded to lymphokines and were considered “rested”. The ability of the T cells to proliferate to selected peptides, recombinant Cry j I (rCry j I), purified native Cry j I, or recombinant Amb aI.1 (rAmb aI.1) or a positive control, phyto-hemaglutinin (PHA) was then assessed. For assay, 2×10^4 rested cells were restimulated in the presence of 2×10^4 autologous Epstein-Barr virus (EBV)-transformed B cells (prepared as described below) (gamma-irradiated with 25,000 RADS) with 2-50 μg/ml of selected peptides, Cry j I, purified native Cry j I or rAmb a I.1 or PHA, in a volume of 200 μl complete medium in duplicate or triplicate wells in 96-well round bottom plates for 2-4 days. […] Each well then received 1 μCi tritiated thymidine for 16-20 hours. The counts incorporated were collected onto glass fiber filter mats and processed for liquid scintillation counting. […] The titrations were used to optimize the dose of peptides in T cell assays. The maximum response in a titration of each peptide is expressed as the stimulation index (S.I.). The S.I. is the counts per minute (CPM) incorporated by cells in response to peptide, divided by the CPM incorporated by cells in medium only.
The above procedure was followed with a number of other patients. […] The bars represent the positivity index. Above each bar is the percent of positive responses with an S.I. of at least two to the peptide or protein in the group of patients tested. In parenthesis above each bar are the mean stimulation indices for each peptide or protein for the group of patients tested.
Autologous EBV-transformed cell lines were y-irradiated with 25,000 Rad and used as antigen presenting cells in secondary proliferation assays and secondary bulk stimulations. These EBV-transformed cell lines were made by incubating 5×10^6 PBL with 1 ml of B-59/8 Marmoset cell line (ATCC CRL1612, American Type Culture Collection, Rockville, Md.) conditioned medium in the presence of 1 μg/ml phorbol 12-myristate 13-acetate (PMA) at 37° C. for 60 minutes in 12×75 mm polypropylene round-bottom Falcon snap cap tubes (Becton Dickinson Labware, Lincoln Park, N.J.). These cells were then diluted to 1.25×10^6 cells/ml in RPMI-1640 as described above except supplemented with 10% heat-inactivated fetal bovine serum and cultured in 200 μl aliquots in flat bottom culture plates until visible colonies were detected. They were then transferred to larger wells until the cell lines were established.

IgE antibodies = conditions: Sakaguchi (1990); cited from earlier work
human basophil = assay: Histamine release assay; format: cell-based; conditions: one Japanese cedar pollen allergic patient, FIG. 11
Description: To determine whether a peptide which binds IgE results in the release of mediators, a histamine release assay can be performed using standard reagents and protocols obtained for example, from Amac, Inc. (Westbrook, Me.). Briefly, a buffered solution of a peptide to be tested is combined with an equal volume of whole heparinized blood from an allergic subject. After mixing and incubation, the cells are pelleted and the supernatants are processed an analyzed using a radioimmunoassay to determine the amount of histamine released.
A histamine release assay was performed on one Japanese cedar pollen allergic patient using Japanese cedar pollen SPE, purified native Cry j I and rCry j I as the added antigens. This assay is a measure of IgE reactivity through human basophil mediator release. […] Two possible explanations for this release by the rCry j I are: 1) specific reactivity with a very low proportion of the anti-Cry j I IgE capable of recognizing the recombinant form of Cry j I, or 2) non-specific release caused by low abundance of bacterial contaminants observed only at the highest antigen concentration. […] In addition, the data shown are from single data points at each protein concentration.

allergic patient IgE = assay: Allergic sera titration of purified subfractions of Cry j I (FIG. 3); format: binding, human; conditions: pool of fifteen allergic patient plasma
Text: In summary, three Cry j I isoforms of different molecular weight were purified from pollen extract. The molecular weights estimated by SDS-PAGE ranged from 40-35 kD under both reducing and non-reducing conditions. The isoelectric point of these isoforms is approximately 9.5-8.6, with an average pI of 9.0. The N-terminal 20 amino acid sequence was the same in these 3 bands and was identical to previously published Cry j I sequence (Taniai et al, supra). The 3 isoforms are all recognized by monoclonal antibody CBF2 as shown in the allergic sera titration of different purified subfractions of Cry j I using a pool of fifteen allergic patient plasma. […] The difference in molecular weight and isoelectric point in these isoforms might in part be due to post-translational modification, e.g. glycosylation, phosphorylation or lipid content. The possibility that these different isoforms might be due to protease degradation cannot be ruled out at present even though it is unlikely due to the fact that four different protease inhibitors were used during extraction and purification. The other possibility could be due to polymorphism in the gene or alternate splicing in the mRNA though only one major form of Cry j I protein has been detected in cDNA cloning studies (see Example 4).

[1] = test system: Cry j allergic patient plasma IgE; assay: Cry j I peptide screen, direct ELISA for IgE binding (Example 12); parameters: species or system human; conditions: plasma pools PHP-A and PHP-D, FIGS. 22 and 23
Text: To analyze IgE reactivity to the selected peptides discussed in example 11 and shown in FIG. 20, a direct ELISA format was used. ELISA wells were coated with the selected peptides derived from Cry j I and then assayed for IgE binding. FIGS. 22 and 23 are graphs of these binding results using two different pools of Cry j allergic patient plasma. Patient plasma pool A (denoted PHP-A) (FIG. 22) was formulated by mixing equal volumes of plasma from 22 patients that were all shown to be positive for direct IgE binding to native purified Cry j I by ELISA. The second pool (PHP-D) (FIG. 23) was formulated by the combination of equal plasma volumes from 8 patients that had IgE binding by direct ELISA to both native and denatured purified Cry j I. This pool was generated to increase the chance of detecting reactivity towards peptides. […] There was no detectable IgE binding reactivity to any of the peptides at any of the plasma concentrations used. To control for the presence of peptide coating the wells, mouse polyclonal antisera was generated to the peptides. […] The results of these assays are shown in FIG. 24, and indicate that peptides were coating the wells.

B1: purified native Cry j I: major allergen of Japanese cedar pollen, biochemically purified in the native form (protein)
chain: DNPIDSCWRGDSNWAQNRMKLADCAVGFGSSTMGGKGGDLYTVTNSDDDPVNPAPGTLRYGATRDRPLWIIFSGNMNIKLKMPMYIAGYKTFDGRGAQVYIGNGGPCVFIKRVSNVIIHGLYLYGCSTSVLGNVLINESFGVEPVHPQDGDALTLRTATNIWIDHNSFSNSSDGLVDVTLTSTGVTISNNLFFNHHKVMLLGHDDAYSDDKSMKVTVAFNQFGPNCGQRMPRARYGLVHVANNNYDPWTIYAIGGSSNPTILSEGNSFTAPNESYKKQVTIRIGCKTSSSCSNWVWQSTQDVFYNGAYFVSSGKYEGGNIYTKKEAFNVENGNATPQLTKNAGVLTCSLSKRC
T cell line response (Cry j I reactive T cells; panel of twenty-five patients, FIG. 14): All twenty-five T cell lines responded
T cell proliferative response (Cry j I reactive T cells; patient #999, FIG. 12): responds well
allergic patients with IgE that only reacted with this allergen (IgE antibodies): 29%
histamine release (human basophil): strong histamine release
IgE binding of purified isoforms (allergic patient IgE): bind allergic patient IgE
IgE binding, direct ELISA [1]: direct binding
